Results published in the supplement of paper PMC11246515.
± gives the standard deviation of the averaged measurements.

Test: total protein half-life in vivo (active degradation + dilution); higher = more stable protein
[1] = E. coli NCM3722 delta-clpP delta-lon delta-hslV, growth: N-lim chemostat, doubling time 6 h
[2] = E. coli NCM3722 delta-clpP, growth: N-lim chemostat, doubling time 6 h
[3] = E. coli NCM3722 delta-hslV, growth: N-lim chemostat, doubling time 6 h
[4] = E. coli NCM3722 delta-lon, growth: N-lim chemostat, doubling time 6 h
[5] = E. coli NCM3722 delta-smpB, growth: N-lim chemostat, doubling time 6 h
[6] = wild type E. coli NCM3722, growth: C-lim chemostat, doubling time 3 h
[7] = wild type E. coli NCM3722, growth: C-lim chemostat, doubling time 6 h
[8] = wild type E. coli NCM3722, growth: C-lim chemostat, doubling time 12 h
[9] = wild type E. coli NCM3722, growth: N-lim chemostat, doubling time 6 h
[10] = wild type E. coli NCM3722, growth: N-lim chemostat, doubling time 12 h
[11] = wild type E. coli NCM3722, growth: P-lim chemostat, doubling time 6 h
[12] = wild type E. coli NCM3722, growth: P-lim chemostat, doubling time 12 h

Row | Sequence | total protein half-life in vivo [1] [h] | total protein half-life in vivo [2] [h] | total protein half-life in vivo [3] [h] | total protein half-life in vivo [4] [h] | total protein half-life in vivo [5] [h] | total protein half-life in vivo [6] [h] | total protein half-life in vivo [7] [h] | total protein half-life in vivo [8] [h] | total protein half-life in vivo [9] [h] | total protein half-life in vivo [10] [h] | total protein half-life in vivo [11] [h] | total protein half-life in vivo [12] [h]
1 | MRVLGIETSCDETGIAIYDDEKGLLANQLYSQVKLHADYGGVVPELASRDHVRKTVPLIQAALKESGLTAKDIDAVAYTAGPGLVGALLVGATVGRSLAFAWDVPAIPVHHMEGHLLAPMLEDNPPEFPFVALLVSGGHTQLISVTGIGQYELLGESIDDAAGEAFDKTAKLLGLDYPGGPLLSKMAAQGTAGRFVFPRPMTDRPGLDFSFSGLKTFAANTIRDNGTDDQTRADIARAFEDAVVDTLMIKCKRALDQTGFKRLVMAGGVSANRTLRAKLAEMMKKRRGEVFYARPEFCTDNGAMIAYAGMVRFKAGATADLGVSVRPRWPLAELPAA | 4.38 ± 0.12 | 3 ± 0.72 | 3.73 ± 1.1 | 4.84 ± 1.2 | 3.17 ± 0.33 | 2.618 ± 0.021 | 4.72 ± 0.64 | 7.77 ± 1.6 | 3.33 ± 0.5 | 4.16 ± 0.42 | 4.07 ± 0.11 | 8.07 ± 0.76
2 | MGMIGYFAEIDSEKINQLLESTEKPLMDNIHDTLSGLRRLDIDKRWDFLHFGLTGTSAFDPAKNDPLSRAVLGEHSLEDGIDGFLGLTWNQELAATIDRLESLDRNELRKQFSIKRLNEMEIYPGVTFSEELEGQLFASIMLDMEKLISAYRRMLRQGNHALTVIVG | – | – | 2.19 | – | 1.91 ± 0.022 | 1.89 | 4.04 | 4.57 | – | – | 3.44 ± 0.17 | 6.19 ± 0.12
3 | MSSFDYLKTAIKQQGCTLQQVADASGMTKGYLSQLLNAKIKSPSAQKLEALHRFLGLEFPRQKKTIGVVFGKFYPLHTGHIYLIQRACSQVDELHIIMGFDDTRDRALFEDSAMSQQPTVPDRLRWLLQTFKYQKNIRIHAFNEEGMEPYPHGWDVWSNGIKKFMAEKGIQPDLIYTSEEADAPQYMEHLGIETVLVDPKRTFMSISGAQIRENPFRYWEYIPTEVKPFFVRTVAILGGESSGKSTLVNKLANIFNTTSAWEYGRDYVFSHLGGDEIALQYSDYDKIALGHAQYIDFAVKYANKVAFIDTDFVTTQAFCKKYEGREHPFVQALIDEYRFDLVILLENNTPWVADGLRSLGSSVDRKEFQNLLVEMLEENNIEFVRVEEEDYDSRFLRCVELVREMMGEQR | 5.91 ± 0.15 | – | 5.88 ± 0.4 | 6.4 ± 0.35 | 5.71 ± 0.23 | 2.975 ± 0.013 | 5.76 ± 0.61 | 10.5 ± 1.5 | 5.3 ± 0.24 | 10.6 ± 1.9 | 5.97 ± 0.31 | 10.8 ± 0.14
4 | MRLLPLVAAATAAFLVVACSSPTPPRGVTVVNNFDAKRYLGTWYEIARFDHRFERGLEKVTATYSLRDDGGLNVINKGYNPDRGMWQQSEGKAYFTGAPTRAALKVSFFGPFYGGYNVIALDREYRHALVCGPDRDYLWILSRTPTISDEVKQEMLAVATREGFDVSKFIWVQQPGS [P0A901] | 5.85 ± 0.12 | 6.28 ± 0.6 | 5.56 ± 0.29 | 6.82 ± 0.84 | 5.8 ± 0.32 | 2.82 ± 0.082 | 5.41 ± 0.38 | 10.6 ± 2.6 | 5.78 ± 0.14 | 11.8 ± 1.4 | 5.43 ± 0.26 | 11.04 ± 0.072
5 | MSVFSLKIDIADNKFFNGETSPLFSQSQAKLARQFHQKIAGYRPTPLCALDDLANLFGVKKILVKDESKRFGLNAFKMLGGAYAIAQLLCEKYHLDIETLSFEHLKNAIGEKMTFATTTDGNHGRGVAWAAQQLGQNAVIYMPKGSAQERVDAILNLGAECIVTDMNYDDTVRLTMQHAQQHGWEVVQDTAWEGYTKIPTWIMQGYATLADEAVEQMREMGVTPTHVLLQAGVGAMAGGVLGYLVDVYSPQNLHSIIVEPDKADCIYRSGVKGDIVNVGGDMATIMAGLACGEPNPLGWEILRNCATQFISCQDSVAALGMRVLGNPYGNDPRIISGESGAVGLGVLAAVHYHPQRQSLMEKLALNKDAVVLVISTEGDTDVKHYREVVWEGKHAVAP | – | – | – | – | – | – | 4.2 | – | – | – | – | –
6 | MIDDDGYRPNVGIVICNRQGQVMWARRFGQHSWQFPQGGINPGESAEQAMYRELFEEVGLSRKDVRILASTRNWLRYKLPKRLVRWDTKPVCIGQKQKWFLLQLVSGDAEINMQTSSTPEFDGWRWVSYWYPVRQVVSFKRDVYRRVMKEFASVVMSLQENTPKPQNASAYRRKRG [P0A776] | 5.67 ± 0.079 | 5.62 ± 0.48 | 6.81 ± 1.3 | 6.4 ± 0.12 | 5.02 ± 0.73 | – | 5.48 ± 0.44 | 9.01 ± 3.2 | 4.84 ± 0.076 | 11.9 ± 3.9 | – | 9.25 ± 0.6
